From patent US20130209454A1
Where a chain is given by its changes, count along the chain named. In names and notes the source's numbering stands.

How the values were obtained:
Experiment in all cases: cell-based or functional assay
[1] = biological target: HIV-1 Env of strain 0815.v3.c3 (HIV-1)
[2] = biological target: HIV-1 Env of strain 231966.c02 (HIV-1)
[3] = biological target: HIV-1 Env of strain 3103.v3.c10 (HIV-1)
[4] = biological target: HIV-1 Env of strain 62357_14_D3_4589 (HIV-1)
[5] = biological target: HIV-1 Env of strain AC10.0.29 (HIV-1)
[6] = biological target: HIV-1 Env of strain CAP45.2.00.G3 (HIV-1)
[7] = biological target: HIV-1 Env of strain CNE30 (HIV-1)
[8] = biological target: HIV-1 Env of strain P1981_C5_3 (HIV-1)
[9] = biological target: HIV-1 Env of strain T257-31 (HIV-1)
[10] = biological target: HIV-1 strain 0815.v3.c3 envelope (gp120) (HIV-1)
[11] = biological target: HIV-1 strain 620345.c01 envelope (gp120) (HIV-1)
[12] = biological target: HIV-1 strain 6535.3 envelope (gp120) (HIV-1)
[13] = biological target: HIV-1 strain C1080.c03 envelope (gp120) (HIV-1)
[14] = biological target: HIV-1 strain C3347.c11 envelope (gp120) (HIV-1)
[15] = biological target: HIV-1 strain CNE21 envelope (gp120) (HIV-1)
[16] = biological target: HIV-1 strain Ce0393_C3 envelope (gp120) (HIV-1)
[17] = biological target: HIV-1 strain PVO.4 envelope (gp120) (HIV-1)
[18] = biological target: HIV-1 strain REJO4541.67 envelope (gp120) (HIV-1)
[19] = biological target: HIV-1 strain X1254_c3 envelope (gp120) (HIV-1)
[20] = biological target: Env of HIV-1 strain 0260.v5.c36 (HIV-1)
[21] = biological target: Env of HIV-1 strain 1006_11_C3_1601 (HIV-1)
[22] = biological target: Env of HIV-1 strain 1394C9G1(Rev-) (HIV-1)
[23] = biological target: Env of HIV-1 strain 3016.v5.c45 (HIV-1)
[24] = biological target: Env of HIV-1 strain 3103.v3.c10 (HIV-1)
[25] = biological target: Env of HIV-1 strain 3415.v1.c1 (HIV-1)
[26] = biological target: Env of HIV-1 strain 6041.v3.c23 (HIV-1)
[27] = biological target: Env of HIV-1 strain 6244_13_B5_4576 (HIV-1)
[28] = biological target: Env of HIV-1 strain BJOX009000.02.4 (HIV-1)
[29] = biological target: Env of HIV-1 strain C3347.c11 (HIV-1)
[30] = biological target: Env of HIV-1 strain CAAN5342.A2 (HIV-1)
[31] = biological target: Env of HIV-1 strain CNE17 (HIV-1)
[32] = biological target: Env of HIV-1 strain CNE19 (HIV-1)
[33] = biological target: Env of HIV-1 strain CNE20 (HIV-1)
[34] = biological target: Env of HIV-1 strain P1981_C5_3 (HIV-1)
[35] = biological target: Env of HIV-1 strain PVO.4 (HIV-1)
[36] = biological target: Env of HIV-1 strain R2184.c04 (HIV-1)
[37] = biological target: Env of HIV-1 strain SC422661.8 (HIV-1)
[38] = biological target: Env of HIV-1 strain T278-50 (HIV-1)
[39] = biological target: Env of HIV-1 strain X1193_c1 (HIV-1)
[40] = biological target: Env of HIV-1 strain X2131_C1_B5 (HIV-1)
[41] = biological target: Env of HIV-1 strain ZM53M.PB12 (HIV-1)
[42] = biological target: HIV-1 Env of strain 0260.v5.c36 (HIV-1)
[43] = biological target: HIV-1 Env of strain 1394C9G1(Rev-) (HIV-1)
[44] = biological target: HIV-1 Env of strain 246F C1G (HIV-1)
[45] = biological target: HIV-1 Env of strain BJOX010000.06.2 (HIV-1)
[46] = biological target: HIV-1 Env of strain BJOX028000.10.3 (HIV-1)
[47] = biological target: HIV-1 Env of strain CNE8 (HIV-1)
[48] = biological target: HIV-1 Env of strain Ce1172_H1 (HIV-1)
[49] = biological target: HIV-1 Env of strain Ce704809221_1B3 (HIV-1)
[50] = biological target: HIV-1 Env of strain Du172.17 (HIV-1)

B1: NIH45-46^G54Y IgG (antibody, name in Kabat numbering, V domains shown)
VH: QVRLSQSGGQMKKPGESMRLSCRASGYEFLNCPINWIRLAPGRRPEWMGWLKPRYGAVNYARKFQGRVTMTRDVYSDTAFLELRSLTSDDTAVYFCTRGKYCTARDYYNWDFEHWGRGAPVTVSS
VL: EIVLTQSPATLSLSPGETAIISCRTSQSGSLAWYQQRPGQAPRLVIYSGSTRAAGIPDRFSGSRWGADYNLSISNLESGDFGVYYCQQYEFFGQGTKVQVDI
neutralization IC50 [1]: < 0.001 µg/mL | neutralization IC50 [2]: 0.06 µg/mL | neutralization IC50 [3]: 0.3 µg/mL | neutralization IC50 [4]: 0.03 µg/mL | neutralization IC50 [5]: 0.19 µg/mL | neutralization IC50 [6]: > 50 µg/mL | neutralization IC50 [7]: 0.099 µg/mL | neutralization IC50 [8]: 0.04 µg/mL | neutralization IC50 [9]: 0.18 µg/mL | neutralization IC80 [10]: 0.015 µg/mL | neutralization IC80 [11]: > 50 µg/mL | neutralization IC80 [12]: 0.24 µg/mL | neutralization IC80 [13]: 1.83 µg/mL | neutralization IC80 [14]: 0.052 µg/mL | neutralization IC80 [15]: 0.29 µg/mL | neutralization IC80 [16]: 0.134 µg/mL | neutralization IC80 [17]: 0.18 µg/mL | neutralization IC80 [18]: 0.02 µg/mL | neutralization IC80 [19]: 0.041 µg/mL

B2: NIH45-46^G54W(HC) S28Y(LC) (antibody, V domains shown)
VH: B1 VH with Y55W
VL: B1 VL with S28Y
IC80 [20]: 0.084 µg/mL | IC80 [21]: 0.037 µg/mL | IC80 [22]: 0.055 µg/mL | IC80 [23]: 0.037 µg/mL | IC80 [24]: 0.594 µg/mL | IC80 [25]: 0.054 µg/mL | IC80 [26]: 0.003 µg/mL | IC80 [27]: 0.109 µg/mL | IC80 [28]: 0.621 µg/mL | IC80 [29]: 0.034 µg/mL | IC80 [30]: 0.299 µg/mL | IC80 [31]: 0.254 µg/mL | IC80 [32]: 0.102 µg/mL | IC80 [33]: 0.02 µg/mL | IC80 [34]: 0.045 µg/mL | IC80 [35]: 0.099 µg/mL | IC80 [36]: 0.039 µg/mL | IC80 [37]: 0.09 µg/mL | IC80 [38]: > 50 µg/mL | IC80 [39]: 0.054 µg/mL | IC80 [40]: 0.145 µg/mL | IC80 [41]: 0.257 µg/mL

B3: NIH45-46^G54W(HC), S28Y(LC) (antibody, V domains shown)
VH: B1 VH with Y55W
VL: B1 VL with S28Y
IC50, pseudovirus neutralization [42]: 0.032 µg/mL | IC50, pseudovirus neutralization [1]: 0.001 µg/mL | IC50, pseudovirus neutralization [43]: 0.012 µg/mL | IC50, pseudovirus neutralization [2]: 0.012 µg/mL | IC50, pseudovirus neutralization [44]: 0.036 µg/mL | IC50, pseudovirus neutralization [3]: 0.181 µg/mL | IC50, pseudovirus neutralization [4]: 0.015 µg/mL | IC50, pseudovirus neutralization [5]: 0.118 µg/mL | IC50, pseudovirus neutralization [45]: 1.38 µg/mL | IC50, pseudovirus neutralization [46]: 0.001 µg/mL | IC50, pseudovirus neutralization [6]: 0.02 µg/mL | IC50, pseudovirus neutralization [7]: 0.082 µg/mL | IC50, pseudovirus neutralization [47]: 0.038 µg/mL | IC50, pseudovirus neutralization [48]: > 50 µg/mL | IC50, pseudovirus neutralization [49]: 0.101 µg/mL | IC50, pseudovirus neutralization [8]: 0.012 µg/mL | IC50, pseudovirus neutralization [9]: 0.126 µg/mL

B4: NIH45-46^G54F IgG (antibody, name in Kabat numbering, V domains shown)
VH: B1 VH with Y55F
VL: B1 VL
neutralization IC50 [50]: 16 µg/mL | neutralization IC50 [1]: < 0.001 µg/mL | neutralization IC50 [2]: 0.06 µg/mL | neutralization IC50 [3]: 0.37 µg/mL | neutralization IC50 [4]: 0.04 µg/mL | neutralization IC50 [5]: 0.24 µg/mL | neutralization IC50 [7]: 0.1 µg/mL | neutralization IC50 [8]: 0.03 µg/mL | neutralization IC50 [9]: 0.17 µg/mL | neutralization IC80 [10]: 0.014 µg/mL | neutralization IC80 [11]: > 50 µg/mL | neutralization IC80 [12]: 0.27 µg/mL | neutralization IC80 [13]: 2.26 µg/mL | neutralization IC80 [14]: 0.059 µg/mL | neutralization IC80 [15]: 0.66 µg/mL | neutralization IC80 [16]: 0.173 µg/mL | neutralization IC80 [17]: 0.25 µg/mL | neutralization IC80 [18]: 0.028 µg/mL | neutralization IC80 [19]: 0.043 µg/mL

B5: NIH45-46^G54W IgG (antibody, name in Kabat numbering, V domains shown)
VH: B1 VH with Y55W
VL: B1 VL
neutralization IC50 [50]: 0.9 µg/mL | neutralization IC50 [1]: < 0.001 µg/mL | neutralization IC50 [2]: 0.02 µg/mL | neutralization IC50 [3]: 0.2 µg/mL | neutralization IC50 [4]: 0.02 µg/mL | neutralization IC50 [5]: 0.13 µg/mL | neutralization IC50 [6]: 32.2 µg/mL | neutralization IC50 [7]: 0.052 µg/mL | neutralization IC50 [8]: 0.02 µg/mL | neutralization IC50 [9]: 0.13 µg/mL | neutralization IC80 [10]: 0.003 µg/mL | neutralization IC80 [11]: > 50 µg/mL | neutralization IC80 [12]: 0.13 µg/mL | neutralization IC80 [13]: 0.91 µg/mL | neutralization IC80 [14]: 0.028 µg/mL | neutralization IC80 [15]: 0.16 µg/mL | neutralization IC80 [16]: 0.089 µg/mL | neutralization IC80 [17]: 0.16 µg/mL | neutralization IC80 [18]: 0.013 µg/mL | neutralization IC80 [19]: 0.018 µg/mL

B6: NIH45-46^G54W (antibody, V domains shown)
VH: B1 VH with Y55W
VL: B1 VL
IC80 [20]: 0.399 µg/mL | IC80 [21]: 0.008 µg/mL | IC80 [22]: 0.024 µg/mL | IC80 [23]: 15.4 µg/mL | IC80 [24]: 0.56 µg/mL | IC80 [25]: 0.023 µg/mL | IC80 [26]: 0.001 µg/mL | IC80 [27]: 0.095 µg/mL | IC80 [28]: 0.564 µg/mL | IC80 [29]: 0.028 µg/mL | IC80 [30]: 0.21 µg/mL | IC80 [31]: 0.127 µg/mL | IC80 [32]: 0.028 µg/mL | IC80 [33]: 0.48 µg/mL | IC80 [34]: 0.07 µg/mL | IC80 [35]: 0.16 µg/mL | IC80 [36]: 0.036 µg/mL | IC80 [37]: 0.07 µg/mL | IC80 [38]: > 50 µg/mL | IC80 [39]: 0.009 µg/mL | IC80 [40]: 0.24 µg/mL | IC80 [41]: 0.16 µg/mL | IC50, pseudovirus neutralization [42]: 0.117 µg/mL | IC50, pseudovirus neutralization [1]: 0.001 µg/mL | IC50, pseudovirus neutralization [43]: 0.001 µg/mL | IC50, pseudovirus neutralization [2]: 0.02 µg/mL | IC50, pseudovirus neutralization [44]: 0.315 µg/mL | IC50, pseudovirus neutralization [3]: 0.2 µg/mL | IC50, pseudovirus neutralization [4]: 0.02 µg/mL | IC50, pseudovirus neutralization [5]: 0.13 µg/mL | IC50, pseudovirus neutralization [45]: 0.769 µg/mL | IC50, pseudovirus neutralization [46]: 0.001 µg/mL | IC50, pseudovirus neutralization [6]: 32.2 µg/mL | IC50, pseudovirus neutralization [7]: 0.052 µg/mL | IC50, pseudovirus neutralization [47]: 0.055 µg/mL | IC50, pseudovirus neutralization [48]: > 50 µg/mL | IC50, pseudovirus neutralization [49]: 0.007 µg/mL | IC50, pseudovirus neutralization [8]: 0.02 µg/mL | IC50, pseudovirus neutralization [9]: 0.13 µg/mL
